# Tests used:
# [1] = biological target: the molecule itself; assay: SEC-SAXS; 50 µL of CrRPI1 at 10 mg/mL on BioSEC-3 300 column in buffer C in series with the SAXS capillary (SWING, SOLEIL); molecular weight from scattering, curve fitted to the crystallographic dimer
# [2] = biological target: the molecule itself; assay: SEC; purified CrRPI1 on two different gel filtration matrices (Superose 6 increase; BioSEC-3 300), buffer C (20 mM Tris-HCl pH 7.9, 100 mmol/L NaCl); oligomer state from apparent molecular weight
protein,measurement,setting,value
"Chlamydomonas reinhardtii chloroplastic ribose-5-phosphate isomerase 1 (CrRPI1) (enzyme, UniProt A8IRQ1 23-269, looked up, residues numbered according to UniProtKB entry A8IRQ1; Theoretical Mw of the recombinant monomer is printed as 27,551 Da; The forward primer introduces an NcoI site at the start codon; source: E. coli BL21(DE3) Rosetta-2 pLysS, purified (NiNTA)) MAAPVSTQLSQDELKKQAAWKAVEYVKSGMVVGLGTGSTAAFAVDRIGQLLKEGKLQNIVGVPTSIRTYEQALSLGIPLATLDEQPKLDVAIDGADEVDPNLDVVKGRGGALLREKMVEMASAKFVCIVDDSKLVEGLGGSKLAMPVEIVQFCHKYTLQRLANLPEVKGCEAKLRMNGDKPYVTDNSNYIVDLYFQTPIKDSQAASKAILGLDGVVDHGLFLDMVDVCIIAGATGVTVQERPNPKKH",stoichiometry N,[1],1.78 to 2
same,stoichiometry N,[2],2
